Key:
Settings in all cases: percent of positive control peptide binding; peptide at 1.11×10^−5M
[1] = molecular target: MHC class I allele A*0101 (A1) (Homo sapiens, UniProt P04439, A114D/A174V/A182V/D101N/D185E/E176A/E190D/L180R/Q94H/R68K/S129P/T187R/V100A/V91M/W191G); assay: iTopia peptide binding assay, A*0101
Protocol: (§1) The 9 mers were tested for Peptide Binding, Off Rate and Affinity using iTopia Epitope Discovery System in accordance with the manufacturer's instructions. Briefly, 96 well microtitre plates coated with MHC molecules representing different MHC alleles are used to identify candidate peptides. […] Determinations are performed in duplicate using an ELISA plate reader and included allele specific positive controls.
(§2) i) Peptide Binding—This assay measures the ability of individual peptides to bind to the MHC molecules under standardized optimal binding conditions. The assay is performed for all the test peptides across the selected MHC alleles. The test peptides identified as “binders” are characterized further in terms of affinity and dissociation experiments.
(§3) Following a period of binding under optimal conditions, excess antibody is removed and a measurement of total fluorescence taken (D).
(§4) The binding of the test peptides to the MHC molecules was performed at 1.11×10^−5M of peptide under optimal, standardised test conditions. A control peptide was run in parallel on the same plate and at the same concentration as the test peptides.
(§5) The level of binding is expressed as a percent of positive control peptide binding for each allele.

[2] = molecular target: MHC class I allele A*0201 (A2) (Homo sapiens, UniProt P04439, D140Y/D185E/D98H/E176V/E277Q/G131W/G231S/I119V/I121R/I166T/I218V/L300P/L318F/N151K/N90K/P208A/P217A/Q86G/Q94H/R138H/R169H/T345S); assay: iTopia peptide binding assay, A*0201
Protocol: as §1, §2, §3, §4, §5

[3] = molecular target: MHC class I allele A*0301 (A3) (Homo sapiens, UniProt P04439); assay: iTopia peptide binding assay, A*0301
Protocol: as §1, §2, §3, §4, §5

[4] = molecular target: MHC class I allele B*0702 (B7) (Homo sapiens, UniProt P01889); assay: iTopia peptide binding assay, B*0702
Protocol: as §1, §2, §3, §4, §5

Sequence	Peptide binding, MHC Class I Molecule A*0101 [1]	Peptide binding, MHC Class I Molecule A*0201 [2]	Peptide binding, MHC Class I Molecule A*0301 [3]	Peptide binding, MHC Class I Molecule B*0702 [4]
TEVPTDLPA [Peptide 42]	3 % of control	7 % of control	0 % of control	0 % of control
PPEDERQNR [Peptide 93]	0 % of control	2 % of control	0 % of control	0 % of control
DRLTCAYPE [Peptide 160]	0 % of control	6 % of control	5 % of control	3 % of control
LDNNPWVCD [Peptide 146]	0 % of control	0 % of control	2 % of control	3 % of control
AELQGLPHI [Peptide 140]	0 % of control	9 % of control	1 % of control	0 % of control
CSRGPAAGD [Peptide 3]	0 % of control	3 % of control	5 % of control	3 % of control
LNSADLDCD [Peptide 169]	0 % of control	0 % of control	3 % of control	0 % of control
NGTLAELQG [Peptide 138]	3 % of control	9 % of control	3 % of control	0 % of control
RDVLAQLPS [Peptide 114]	1 % of control	15 % of control	3 % of control	4 % of control
IFLLVLYLN [Peptide 185]	0 % of control	8 % of control	0 % of control	2 % of control
LPSLRHLDL [Peptide 117]	0 % of control	16 % of control	1 % of control	96 % of control
LKETEVVQG [Peptide 155]	0 % of control	3 % of control	4 % of control	3 % of control
DCDPILPPS [Peptide 172]	0 % of control	0 % of control	3 % of control	0 % of control
QPPLPDQCP [Peptide 28]	6 % of control	5 % of control	1 % of control	3 % of control
RRPPLAELA [Peptide 57]	2 % of control	11 % of control	2 % of control	9 % of control
AALLAGRAL [Peptide 101]	1 % of control	38 % of control	0 % of control	59 % of control
ETEVVQGKD [Peptide 156]	0 % of control	1 % of control	3 % of control	1 % of control
NNSLVSLTY [Peptide 122]	8 % of control	12 % of control	4 % of control	0 % of control

Sequence	Peptide binding, MHC Class I Molecule A*0101 [1]	Peptide binding, MHC Class I Molecule A*0201 [2]	Peptide binding, MHC Class I Molecule A*0301 [3]	Peptide binding, MHC Class I Molecule B*0702 [4]
VVAALLAGR [Peptide 100]	9 % of control	11 % of control	49 % of control	7 % of control
MRNRVLLEL [Peptide 165]	0 % of control	6 % of control	4 % of control	13 % of control
ASAVSAQPP [Peptide 25]	2 % of control	5 % of control	0 % of control	0 % of control
DPILPPSLQ [Peptide 173]	0 % of control	7 % of control	4 % of control	0 % of control
ACRDHMEGY [Peptide 196]	3 % of control	8 % of control	4 % of control	7 % of control
SSSPTSSAS [Peptide 16]	4 % of control	7 % of control	2 % of control	8 % of control
QCPALCECS [Peptide 31]	3 % of control	2 % of control	0 % of control	0 % of control
VRNLFLTGN [Peptide 47]	0 % of control	5 % of control	0 % of control	3 % of control
EGYHYRYEI [Peptide 199]	0 % of control	9 % of control	0 % of control	4 % of control
GKDRLTCAY [Peptide 159]	3 % of control	6 % of control	6 % of control	4 % of control
NNPWVCDCH [Peptide 147]	0 % of control	0 % of control	16 % of control	4 % of control
EDERQNRSF [Peptide 94]	0 % of control	2 % of control	4 % of control	4 % of control
PHIRVFLDN [Peptide 143]	0 % of control	2 % of control	3 % of control	10 % of control
VQGKDRLTC [Peptide 158]	0 % of control	4 % of control	6 % of control	6 % of control
IRVFLDNNP [Peptide 144]	0 % of control	4 % of control	3 % of control	5 % of control
ADMVTWLKE [Peptide 152]	0 % of control	6 % of control	4 % of control	8 % of control
LELNSADLD [Peptide 168]	0 % of control	3 % of control	5 % of control	3 % of control
AFEHLPSLR [Peptide 69]	1 % of control	11 % of control	11 % of control	0 % of control

— US8147838B2, “Peptide” (priority 2005, dated 2012)
